The numbers were not newly measured in patent publication US9265777B2, “Antiparasitic agent for fish and method of controlling proliferation of fish parasites” (NIPPON SUISAN KAISHA, LTD., priority 2009, dated 2016), which cites them from elsewhere.

For this series, the system named is White spot disease. As to conditions: 40 mg per 1 kg of fish body weight orally per day, 28-day experimental period.

B1: lactoferrin: marketed as an additive for fisheries (protein, UniProt P24627 20-708, looked up)
Lactotransferrin: APRKNVRWCTISQPEWFKCRRWQWRMKKLGAPSITCVRRAFALECIRAIAEKKADAVTLDGGMVFEAGRDPYKLRPVAAEIYGTKESPQTHYYAVAVVKKGSNFQLDQLQGRKSCHTGLGRSAGWIIPMGILRPYLSWTESLEPLQGAVAKFFSASCVPCIDRQAYPNLCQLCKGEGENQCACSSREPYFGYSGAFKCLQDGAGDVAFVKETTVFENLPEKADRDQYELLCLNNSRAPVDAFKECHLAQVPSHAVVARSVDGKEDLIWKLLSKAQEKFGKNKSRSFQLFGSPPGQRDLLFKDSALGFLRIPSKVDSALYLGSRYLTTLKNLRETAEEVKARYTRVVWCAVGPEEQKKCQQWSQQSGQNVTCATASTTDDCIVLVLKGEADALNLDGGYIYTAGKCGLVPVLAENRKSSKHSSLDCVLRPTEGYLAVAVVKKANEGLTWNSLKDKKSCHTAVDRTAGWNIPMGLIVNQTGSCAFDEFFSQSCAPGADPKSRLCALCAGDDQGLDKCVPNSKEKYYGYTGAFRCLAEDVGDVAFVKNDTVWENTNGESTADWAKNLNREDFRLLCLDGTRKPVTEAQSCHLAVAPNHAVVSRSDRAAHVKQVLLHQQALFGKNGKNCPDKFCLFKSETKNLLFNDNTECLAKLGGRPTYEEYLGTEYVTAIANLKKCSTSPLLEACAFLTR
In the case of B1, the “infection during experimental period” value is on record as “no infection was observed”.
